Laboratory results published in patent publication US20250051444A1 (published 2025).
Like-named read-outs stand apart in the source and are kept apart here.

Experiments:
Test in all cases: FACS binding to CHO cells
cynomolgus LRRC15 [1] = target: T1, cynomolgus LRRC15 (cynomolgus, UniProt G7NYR2 22-581)
T1 chain: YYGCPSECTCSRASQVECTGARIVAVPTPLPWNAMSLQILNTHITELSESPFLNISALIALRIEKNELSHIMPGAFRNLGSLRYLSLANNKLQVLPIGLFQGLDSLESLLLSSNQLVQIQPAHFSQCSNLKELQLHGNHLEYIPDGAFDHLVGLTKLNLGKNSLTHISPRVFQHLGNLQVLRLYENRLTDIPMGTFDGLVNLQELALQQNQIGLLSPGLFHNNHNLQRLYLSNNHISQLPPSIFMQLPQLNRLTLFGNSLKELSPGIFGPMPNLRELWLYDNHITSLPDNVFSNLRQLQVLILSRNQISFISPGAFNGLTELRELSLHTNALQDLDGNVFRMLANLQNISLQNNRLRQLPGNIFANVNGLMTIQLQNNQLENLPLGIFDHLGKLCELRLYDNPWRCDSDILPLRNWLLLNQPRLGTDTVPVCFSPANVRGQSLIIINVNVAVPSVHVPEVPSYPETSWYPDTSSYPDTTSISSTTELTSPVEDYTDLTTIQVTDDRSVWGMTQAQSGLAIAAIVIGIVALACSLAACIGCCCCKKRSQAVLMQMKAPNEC

[2] = target: T2, human LRRC15 (leucine-rich repeat containing protein 15) (human, UniProt Q8TF66 22-581)
T2 chain: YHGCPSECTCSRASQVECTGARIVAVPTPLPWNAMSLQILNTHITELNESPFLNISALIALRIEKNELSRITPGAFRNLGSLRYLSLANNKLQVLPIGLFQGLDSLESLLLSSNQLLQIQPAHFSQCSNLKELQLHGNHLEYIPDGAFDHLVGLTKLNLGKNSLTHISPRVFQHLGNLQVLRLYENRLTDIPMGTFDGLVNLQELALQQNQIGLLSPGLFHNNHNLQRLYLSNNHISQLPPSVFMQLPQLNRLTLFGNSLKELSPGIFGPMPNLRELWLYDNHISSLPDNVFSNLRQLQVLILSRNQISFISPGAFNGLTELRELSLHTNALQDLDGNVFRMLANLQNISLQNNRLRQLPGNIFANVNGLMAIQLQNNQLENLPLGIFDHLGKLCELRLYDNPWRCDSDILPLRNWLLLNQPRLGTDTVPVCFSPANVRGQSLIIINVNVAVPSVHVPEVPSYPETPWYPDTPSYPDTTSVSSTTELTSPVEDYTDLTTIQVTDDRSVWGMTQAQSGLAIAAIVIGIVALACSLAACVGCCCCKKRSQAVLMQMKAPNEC

[3] = target: T2, human LRRC15 (leucine-rich repeat …)
cynomolgus LRRC15 [4] = target: T1, cynomolgus LRRC15

B1: L15-06 (antibody, V domains shown)
VH: EVQLLESGGGLVQPGGSLRLSCAASGFTFSSYYMSWVRQAPGKGLEWVADISVSGSYTNYADSVKGRFTISRDNSKNTLYLQMNSLRAEDTAVYYCARIGSYRSFFSTDDGDSLDYWGQGTLVTVSS
VL: not shown
- EC50 (cynomolgus LRRC15 [1]): 0.239 nM
- EC50 [2]: 0.376 nM

B2: 315-L06C08 (bispecific antibody)
chain: not shown
heavy: QVQLVESGGGLVKPGGSLRLSCAASGFTFSDYYMSWIRQAPGKGLEWVSDISVSSSYTNYADSVKGRFTISRDNAKNSLYLQMNSLRAEDTAVYYCARLGGYRSFFSTDDGDSLDYWGQGTLVTVSSASTKGPSVFPLAPSSKSTSGGTAALGCLVKDYFPEPVTVSWNSGALTSGVHTFPAVLQSSGLYSLSSVVTVPSSSLGTQTYICNVNHKPSNTKVDKRVEPKSCDKTHTCPPCPAPEFEGGPSVFLFPPKPKDTLMISRTPEVTCVVVDVSHEDPEVKFNWYVDGVEVHNAKTKPREEQYNSTYRVVSVLTVLHQDWLNGKEYKCKVSNKALPASIEKTISKAKGQPREPQVCTLPPSRDELTKNQVSLTCLVEGFYPSDIAVEWESNGQPENNYKTTPPVLDSDGSFFLYSDLTVDKSRWQQGNVFSCSVMHEALHNHYTQESLSLSPGK
light: not shown
- EC50 [3]: 0.488 nM
- EC50 (cynomolgus LRRC15 [4]): 0.627 nM

B3: L15-08 (antibody, V domains shown)
VH: QVQLVESGGGLVKPGGSLRLSCAASGFTFSDYYMSWIRQAPGKGLEWVSDISVSSSYTNYADSVKGRFTISRDNAKNSLYLQMNSLRAEDTAVYYCARLGGYRSFFSTDDGDSLDYWGQGTLVTVSS
VL: not shown
- EC50 (cynomolgus LRRC15 [1]): 0.19 nM
- EC50 [2]: 0.633 nM

B4: 153-L06C (bispecific antibody)
chain 1: not shown
chain 2: EPKSCDKTHTCPPCPAPEFEGGPSVFLFPPKPKDTLMISRTPEVTCVVVDVSHEDPEVKFNWYVDGVEVHNAKTKPREEQYNSTYRVVSVLTVLHQDWLNGKEYKCKVSNKALPASIEKTISKAKGQPREPQVCTLPPSRDELTKNQVSLTCLVEGFYPSDIAVEWESNGQPENNYKTTPPVLDSDGSFFLYSDLTVDKSRWQQGNVFSCSVMHEALHNHYTQESLSLSPGK
- EC50 [3]: 1.15 nM
- EC50 (cynomolgus LRRC15 [4]): 1.48 nM

B5: L15-03 (antibody, V domains shown)
VH: QVQLVQSGAEVKKPGSSVKVSCKASGGTFSSYTISWVRQAPGQGLEWMGGIIPMFGTANYAQKFQGRVTITADESTSTAYMELSSLRSEDTAVYYCARGVALLATDFDYWGQGTLVTVSS
VL: QSALTQPASVSGSPGQSITISCTGTSSDVGGYNYVSWYQQHPGKAPKLMIYEVSNRPSGVSNRFSGSKSGNTASLTISGLQAEDEADYYCQSWTHDNSVVFGGGTKLTVL
- EC50 (cynomolgus LRRC15 [1]): 0.165 nM
- EC50 [2]: 0.285 nM

B6: L15-07 (antibody, V domains shown)
VH: QVQLVQSGAEVKKPGSSVKVSCKASGGTFSTYAISWVRQAPGQGLEWMGGITPMFGTPNYAQKFQGRVTITADESTSTAYMELSSLRSEDTAVYYCARGDWYDYHFDYWGQGTLVTVSS
VL: QSALTQPASVSGSPGQSITISCTGTSSDVGGYNYVSWYQQHPGKAPKLMIYEVSNRPSGVSNRFSGSKSGNTASLTISGLQAEDEADYYCQSYANRDNFVVFGGGTKLTVL
- EC50 (cynomolgus LRRC15 [1]): 0.277 nM
- EC50 [2]: 0.259 nM
